Measurements from IntAct's records for PubMed 27332895.

B1: Aurora kinase C (Homo sapiens), Q9UQB9 (parent)
chain: MSSPRAVVQLGKAQPAGEELATANQTAQQPSSPAMRRLTVDDFEIGRPLGKGKFGNVYLARLKESHFIVALKVLFKSQIEKEGLEHQLRREIEIQAHLQHPNILRLYNYFHDARRVYLILEYAPRGELYKELQKSEKLDEQRTATIIEELADALTYCHDKKVIHRDIKPENLLLGFRGEVKIADFGWSVHTPSLRRKTMCGTLDYLPPEMIEGRTYDEKVDLWCIGVLCYELLVGYPPFESASHSETYRRILKVDVRFPLSMPLGARDLISRLLRYQPLERLPLAQILKHPWVQAHSRRVLPPCAQMAS

Variants of: B1
Conditions: with ince_human INCENP
T198A was tested, and the “effect of a mutation on the interaction” value was “disrupting interaction”.
In the case of T202A, the “effect of a mutation on the interaction” value is reported as “disrupting interaction”.

Variants of: B1
Conditions: with ince_human INCENP
Remark: another data set of the same source
K76R was tested, and the “effect of a mutation on the interaction” value was “disrupting interaction”.
